Experimental data as given in patent US12679878B2, “CRF2 receptor agonists and their use in therapy” (SANOFI, priority 2020, dated 2026).
Starred links: 1 amine or outer side, 2 acyl side, 3 side chain; linkers in the order of their positions; H or OH if unused. Non-standard residues stand in square brackets, D forms with d. Groups on a side chain read outwards from the residue. No end group written: not given here. *: point of attachment. C18 diacid = O=C(O)CCCCCCCCCCCCCCCCC(=O)*; γGlu = O=C(O)[C@H](CCC(=O)[*:2])N[*:1]; AEEA = NCCOCCOCC(=O)O; Aib = CC(C)(N)C(=O)O

T1: anti-target CRF1R receptor (UniProt P34998 24-415, limits assumed)
T1 sequence (looked up): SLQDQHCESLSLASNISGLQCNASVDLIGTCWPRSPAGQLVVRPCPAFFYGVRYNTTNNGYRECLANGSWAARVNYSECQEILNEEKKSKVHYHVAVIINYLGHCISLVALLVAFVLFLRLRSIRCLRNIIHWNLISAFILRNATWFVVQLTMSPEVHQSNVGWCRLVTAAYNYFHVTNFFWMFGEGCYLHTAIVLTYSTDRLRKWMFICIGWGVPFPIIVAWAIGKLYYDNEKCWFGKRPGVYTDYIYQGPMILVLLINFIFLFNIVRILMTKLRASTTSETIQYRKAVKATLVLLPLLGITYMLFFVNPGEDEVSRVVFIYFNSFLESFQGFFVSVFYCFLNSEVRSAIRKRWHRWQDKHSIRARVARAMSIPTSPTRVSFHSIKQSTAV

B1: peptide of SEQ ID NO: 79 (peptide)
peptide: IVLSLDVPIKLK([AEEA-AEEA-γGlu-C18 diacid])QILLEQEKQK[Aib]QREQAETNKQILAQV-NH2
modifications: N-terminus assumed
SMILES: CC[C@H](C)[C@H](N)C(=O)N[C@H](C(=O)N[C@@H](CC(C)C)C(=O)N[C@@H](CO)C(=O)N[C@@H](CC(C)C)C(=O)N[C@@H](CC(=O)O)C(=O)N[C@H](C(=O)N1CCC[C@H]1C(=O)N[C@H](C(=O)N[C@@H](CCCCN)C(=O)N[C@@H](CC(C)C)C(=O)N[C@@H](CCCCNC(=O)COCCOCCNC(=O)COCCOCCNC(=O)CC[C@H](NC(=O)CCCCCCCCCCCCCCCCC(=O)O)C(=O)O)C(=O)N[C@@H](CCC(N)=O)C(=O)N[C@H](C(=O)N[C@@H](CC(C)C)C(=O)N[C@@H](CC(C)C)C(=O)N[C@@H](CCC(=O)O)C(=O)N[C@@H](CCC(N)=O)C(=O)N[C@@H](CCC(=O)O)C(=O)N[C@@H](CCCCN)C(=O)N[C@@H](CCC(N)=O)C(=O)N[C@@H](CCCCN)C(=O)NC(C)(C)C(=O)N[C@@H](CCC(N)=O)C(=O)N[C@@H](CCCNC(=N)N)C(=O)N[C@@H](CCC(=O)O)C(=O)N[C@@H](CCC(N)=O)C(=O)N[C@@H](C)C(=O)N[C@@H](CCC(=O)O)C(=O)N[C@H](C(=O)N[C@@H](CC(N)=O)C(=O)N[C@@H](CCCCN)C(=O)N[C@@H](CCC(N)=O)C(=O)N[C@H](C(=O)N[C@@H](CC(C)C)C(=O)N[C@@H](C)C(=O)N[C@@H](CCC(N)=O)C(=O)N[C@H](C(N)=O)C(C)C)[C@@H](C)CC)[C@@H](C)O)[C@@H](C)CC)[C@@H](C)CC)C(C)C)C(C)C
B2: peptide of SEQ ID NO: 75 (peptide)
peptide: IVLSLDVPIKLK([AEEA-AEEA-γGlu-C18 diacid])QILLKQERQKKQRQQAETN[Aib]QILAQV-NH2
modifications: N-terminus assumed
SMILES: CC[C@H](C)[C@H](N)C(=O)N[C@H](C(=O)N[C@@H](CC(C)C)C(=O)N[C@@H](CO)C(=O)N[C@@H](CC(C)C)C(=O)N[C@@H](CC(=O)O)C(=O)N[C@H](C(=O)N1CCC[C@H]1C(=O)N[C@H](C(=O)N[C@@H](CCCCN)C(=O)N[C@@H](CC(C)C)C(=O)N[C@@H](CCCCNC(=O)COCCOCCNC(=O)COCCOCCNC(=O)CC[C@H](NC(=O)CCCCCCCCCCCCCCCCC(=O)O)C(=O)O)C(=O)N[C@@H](CCC(N)=O)C(=O)N[C@H](C(=O)N[C@@H](CC(C)C)C(=O)N[C@@H](CC(C)C)C(=O)N[C@@H](CCCCN)C(=O)N[C@@H](CCC(N)=O)C(=O)N[C@@H](CCC(=O)O)C(=O)N[C@@H](CCCNC(=N)N)C(=O)N[C@@H](CCC(N)=O)C(=O)N[C@@H](CCCCN)C(=O)N[C@@H](CCCCN)C(=O)N[C@@H](CCC(N)=O)C(=O)N[C@@H](CCCNC(=N)N)C(=O)N[C@@H](CCC(N)=O)C(=O)N[C@@H](CCC(N)=O)C(=O)N[C@@H](C)C(=O)N[C@@H](CCC(=O)O)C(=O)N[C@H](C(=O)N[C@@H](CC(N)=O)C(=O)NC(C)(C)C(=O)N[C@@H](CCC(N)=O)C(=O)N[C@H](C(=O)N[C@@H](CC(C)C)C(=O)N[C@@H](C)C(=O)N[C@@H](CCC(N)=O)C(=O)N[C@H](C(N)=O)C(C)C)[C@@H](C)CC)[C@@H](C)O)[C@@H](C)CC)[C@@H](C)CC)C(C)C)C(C)C
B3: peptide of SEQ ID NO: 77 (peptide)
peptide: IVLSLDVPIKLK([AEEA-AEEA-γGlu-C18 diacid])QILLKQERQKKQRQKAETNKQILAQV-NH2
modifications: N-terminus assumed
SMILES: CC[C@H](C)[C@H](N)C(=O)N[C@H](C(=O)N[C@@H](CC(C)C)C(=O)N[C@@H](CO)C(=O)N[C@@H](CC(C)C)C(=O)N[C@@H](CC(=O)O)C(=O)N[C@H](C(=O)N1CCC[C@H]1C(=O)N[C@H](C(=O)N[C@@H](CCCCN)C(=O)N[C@@H](CC(C)C)C(=O)N[C@@H](CCCCNC(=O)COCCOCCNC(=O)COCCOCCNC(=O)CC[C@H](NC(=O)CCCCCCCCCCCCCCCCC(=O)O)C(=O)O)C(=O)N[C@@H](CCC(N)=O)C(=O)N[C@H](C(=O)N[C@@H](CC(C)C)C(=O)N[C@@H](CC(C)C)C(=O)N[C@@H](CCCCN)C(=O)N[C@@H](CCC(N)=O)C(=O)N[C@@H](CCC(=O)O)C(=O)N[C@@H](CCCNC(=N)N)C(=O)N[C@@H](CCC(N)=O)C(=O)N[C@@H](CCCCN)C(=O)N[C@@H](CCCCN)C(=O)N[C@@H](CCC(N)=O)C(=O)N[C@@H](CCCNC(=N)N)C(=O)N[C@@H](CCC(N)=O)C(=O)N[C@@H](CCCCN)C(=O)N[C@@H](C)C(=O)N[C@@H](CCC(=O)O)C(=O)N[C@H](C(=O)N[C@@H](CC(N)=O)C(=O)N[C@@H](CCCCN)C(=O)N[C@@H](CCC(N)=O)C(=O)N[C@H](C(=O)N[C@@H](CC(C)C)C(=O)N[C@@H](C)C(=O)N[C@@H](CCC(N)=O)C(=O)N[C@H](C(N)=O)C(C)C)[C@@H](C)CC)[C@@H](C)O)[C@@H](C)CC)[C@@H](C)CC)C(C)C)C(C)C
B4: peptide of SEQ ID NO: 70 (peptide)
peptide: IVLSLDVPIKLK([AEEA-AEEA-γGlu-C18 diacid])QILLEQERQKKQREQAETN[Aib]QILAQV-NH2
modifications: N-terminus assumed
SMILES: CC[C@H](C)[C@H](N)C(=O)N[C@H](C(=O)N[C@@H](CC(C)C)C(=O)N[C@@H](CO)C(=O)N[C@@H](CC(C)C)C(=O)N[C@@H](CC(=O)O)C(=O)N[C@H](C(=O)N1CCC[C@H]1C(=O)N[C@H](C(=O)N[C@@H](CCCCN)C(=O)N[C@@H](CC(C)C)C(=O)N[C@@H](CCCCNC(=O)COCCOCCNC(=O)COCCOCCNC(=O)CC[C@H](NC(=O)CCCCCCCCCCCCCCCCC(=O)O)C(=O)O)C(=O)N[C@@H](CCC(N)=O)C(=O)N[C@H](C(=O)N[C@@H](CC(C)C)C(=O)N[C@@H](CC(C)C)C(=O)N[C@@H](CCC(=O)O)C(=O)N[C@@H](CCC(N)=O)C(=O)N[C@@H](CCC(=O)O)C(=O)N[C@@H](CCCNC(=N)N)C(=O)N[C@@H](CCC(N)=O)C(=O)N[C@@H](CCCCN)C(=O)N[C@@H](CCCCN)C(=O)N[C@@H](CCC(N)=O)C(=O)N[C@@H](CCCNC(=N)N)C(=O)N[C@@H](CCC(=O)O)C(=O)N[C@@H](CCC(N)=O)C(=O)N[C@@H](C)C(=O)N[C@@H](CCC(=O)O)C(=O)N[C@H](C(=O)N[C@@H](CC(N)=O)C(=O)NC(C)(C)C(=O)N[C@@H](CCC(N)=O)C(=O)N[C@H](C(=O)N[C@@H](CC(C)C)C(=O)N[C@@H](C)C(=O)N[C@@H](CCC(N)=O)C(=O)N[C@H](C(N)=O)C(C)C)[C@@H](C)CC)[C@@H](C)O)[C@@H](C)CC)[C@@H](C)CC)C(C)C)C(C)C
B5: peptide of SEQ ID NO: 72 (peptide)
peptide: IVLSLDVPIKLK([AEEA-AEEA-γGlu-C18 diacid])QILLEQERQKKQRQQAETN[Aib]QILAQV-NH2
modifications: N-terminus assumed
SMILES: CC[C@H](C)[C@H](N)C(=O)N[C@H](C(=O)N[C@@H](CC(C)C)C(=O)N[C@@H](CO)C(=O)N[C@@H](CC(C)C)C(=O)N[C@@H](CC(=O)O)C(=O)N[C@H](C(=O)N1CCC[C@H]1C(=O)N[C@H](C(=O)N[C@@H](CCCCN)C(=O)N[C@@H](CC(C)C)C(=O)N[C@@H](CCCCNC(=O)COCCOCCNC(=O)COCCOCCNC(=O)CC[C@H](NC(=O)CCCCCCCCCCCCCCCCC(=O)O)C(=O)O)C(=O)N[C@@H](CCC(N)=O)C(=O)N[C@H](C(=O)N[C@@H](CC(C)C)C(=O)N[C@@H](CC(C)C)C(=O)N[C@@H](CCC(=O)O)C(=O)N[C@@H](CCC(N)=O)C(=O)N[C@@H](CCC(=O)O)C(=O)N[C@@H](CCCNC(=N)N)C(=O)N[C@@H](CCC(N)=O)C(=O)N[C@@H](CCCCN)C(=O)N[C@@H](CCCCN)C(=O)N[C@@H](CCC(N)=O)C(=O)N[C@@H](CCCNC(=N)N)C(=O)N[C@@H](CCC(N)=O)C(=O)N[C@@H](CCC(N)=O)C(=O)N[C@@H](C)C(=O)N[C@@H](CCC(=O)O)C(=O)N[C@H](C(=O)N[C@@H](CC(N)=O)C(=O)NC(C)(C)C(=O)N[C@@H](CCC(N)=O)C(=O)N[C@H](C(=O)N[C@@H](CC(C)C)C(=O)N[C@@H](C)C(=O)N[C@@H](CCC(N)=O)C(=O)N[C@H](C(N)=O)C(C)C)[C@@H](C)CC)[C@@H](C)O)[C@@H](C)CC)[C@@H](C)CC)C(C)C)C(C)C

What follows are binders tested against T1, anti-target CRF1R receptor (assay: cell-based or functional assay).

| EC50[nM] 0% HSA (cAMP, CRF1R-overexpression CHO cells) | Emax (%) (cAMP, CRF1R-overexpression CHO cells) | Binder |
| --- | --- | --- |
| > 1000 nM | 8.74% | B1 |
| > 1000 nM | 2.7% | B2 |
| > 1000 nM | 1.56% | B3 |
| > 1000 nM | 3.03% | B4 |
| > 1000 nM | 2.58% | B5 |

Each binder was assayed against rat CRF2R α receptor (rat, UniProt P47866 20-411) (assay: cell-based or functional assay).
Chain of rat CRF2R α receptor (P47866 20-411): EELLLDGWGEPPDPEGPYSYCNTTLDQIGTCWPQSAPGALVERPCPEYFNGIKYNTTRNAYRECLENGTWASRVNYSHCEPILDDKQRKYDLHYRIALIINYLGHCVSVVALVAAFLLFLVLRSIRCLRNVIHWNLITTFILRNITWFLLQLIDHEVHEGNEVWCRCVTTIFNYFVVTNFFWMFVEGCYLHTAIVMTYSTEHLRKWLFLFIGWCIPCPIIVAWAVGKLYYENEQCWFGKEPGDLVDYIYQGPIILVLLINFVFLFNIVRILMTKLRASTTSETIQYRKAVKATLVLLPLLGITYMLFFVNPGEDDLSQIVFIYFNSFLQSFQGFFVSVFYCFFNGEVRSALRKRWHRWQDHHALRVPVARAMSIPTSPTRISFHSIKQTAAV

| EC50 [nM], 0% HSA (cAMP, A7R5 cells) | Binder |
| --- | --- |
| 3.99 nM | B1 |
| 1.71 nM | B2 |
| 3.26 nM | B3 |
| 8.72 nM | B4 |
| 4.31 nM | B5 |
